# Experimental data from patent US20020031818A1, “Modification of Mdm2 activity” (priority 2000, published 2002).
# B1: p19^ARF: Mdm2-regulating protein; in vitro translated, bacculovirus-expressed or transfected (protein)
# chain: MGRRFLVTVRIQRAGRPLQERVFLVKFVRSRRPRTASCALAFVNMLLRLERILRRGPHRNPGPGDDDGQRSRSSSSAQLRCRFELRGPHYLLPPGARRSAGRLPGHAGGAARVRGSAGCARCLGSPAARLGPRAGTSRHRAIFAFRWVLFVFRWVVFVYRWERRPDRRA
# Molecular target: Mdm2 (Homo sapiens, UniProt Q00987)
# Test: In vivo sumoylation of Mdm2 in p53/Mdm2 double null cells
# Format: cell-based
# Parameters: expressed in transfected cells; host or cells: p53/Mdm2 double null cells
# Settings: Flag-Mdm2, HA-SUMO, p19 wt 1.5 μg each; MG132
# Method: FIGS. 10A-10D. A. Time dependent Mdm2 sumoylation in vitro. Bacterially expressed and purified GST-Mdm2 was subjected to in vitro sumoylation reaction in the presence of E1, Ubc9, and ^35S-Sumos. Reaction was terminated after 10,30,50 or 60 minutes, Proteins were separated on 8% gel, Commassie stained, dryed and exposed overnight (upper panel). Lower panel depicts Commassie blue staining of Mdm2 forms. B. A peptide corresponding to the Ubc-9 binding site on Mdm2 decreases Mdm2 in vitro sumoylation of Mdm2 in a time-dependent manner. (Upper part) The specific Ubc-9-binding site peptide or a nonspecific peptide was added to the reaction for the indicated time periods. […] The lower panel depicts a Coomassie staining visualizing relative amounts of sumoylated and non-sumoylated forms of purified GST-Mdm2. C. The Mdm2 sumoylation assay was carried out in the presence of Ubc-9-binding site peptide (mu9bs) or a nonspecific peptide ([…]) which were added to the reaction at the indicated concentrations. […] D. A peptide corresponding to the Ubc-9 binding site on Mdm2 decreases Mdm2 sumoylation in vivo. […] Immunoprecipitated Mdm2 levels were detected using 2A10 antibodies (top). […]
# FIG. 13A-13E. […] (Left) Immunoprecipitated Mdm2 was detected using monoclonal Mdm2 antibodies (2A10, left). […]
# Chain of Mdm2 (Q00987 whole entry): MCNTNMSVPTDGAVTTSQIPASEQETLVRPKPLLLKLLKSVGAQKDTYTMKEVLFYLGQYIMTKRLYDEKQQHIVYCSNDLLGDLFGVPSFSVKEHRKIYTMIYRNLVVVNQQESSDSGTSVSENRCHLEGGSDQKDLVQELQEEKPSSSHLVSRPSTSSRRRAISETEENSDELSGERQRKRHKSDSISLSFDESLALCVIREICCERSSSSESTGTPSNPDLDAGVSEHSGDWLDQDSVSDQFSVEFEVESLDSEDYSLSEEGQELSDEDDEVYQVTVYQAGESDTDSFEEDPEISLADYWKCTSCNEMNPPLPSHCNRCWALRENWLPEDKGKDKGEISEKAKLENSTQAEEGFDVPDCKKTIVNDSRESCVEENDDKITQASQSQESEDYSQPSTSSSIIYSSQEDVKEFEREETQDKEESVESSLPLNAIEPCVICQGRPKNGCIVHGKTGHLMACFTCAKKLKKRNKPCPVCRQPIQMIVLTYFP
molecule,measurement,value
B1,Mdm2 sumoylation in Mdm2/p53-/- cells upon p19ARF co-expression,reduced the degree of Mdm2 sumoylation
